Reference: publication PMC8271027
Values belong to the substance of their own block, whether it stands above or below them.

What was measured:
A*02:01/photoKV9 (human) [1] = biological target: A*02:01/photoKV9 (human)
B*27:09/photoRL9 (human) [2] = biological target: B*27:09/photoRL9 (human)
B*27:05/photoRL9 (human) [3] = biological target: B*27:05/photoRL9 (human)
A*03:01/photoKK9 (human) [4] = biological target: A*03:01/photoKK9 (human)
A*03:01/photoKK9 (human) [5] = biological target: A*03:01/photoKK9 (human); remark: listed apart in the source
B*27:09/photoRL9 (human) [6] = biological target: B*27:09/photoRL9 (human); remark: listed apart in the source
B*27:05/photoRL9 (human) [7] = biological target: B*27:05/photoRL9 (human); remark: listed apart in the source
A*03:01/photoKK9 (human) [8] = biological target: A*03:01/photoKK9 (human); remark: listed apart in the source
A*02:01/photoKV9 (human) [9] = biological target: A*02:01/photoKV9 (human); remark: listed apart in the source
B*27:09/photoRL9 (human) [10] = biological target: B*27:09/photoRL9 (human); remark: listed apart in the source
B*27:05/photoRL9 (human) [11] = biological target: B*27:05/photoRL9 (human); remark: listed apart in the source
A*03:01/photoKK9 (human) [12] = biological target: A*03:01/photoKK9 (human); remark: listed apart in the source
B*27:09/photoRL9 (human) [13] = biological target: B*27:09/photoRL9 (human); remark: listed apart in the source
A*03:01/photoKK9 (human) [14] = biological target: A*03:01/photoKK9 (human); remark: listed apart in the source

relative catalytic activity in peptide exchange; UV-exposed A*03:01/photoKK9, FITC-KK9 (second printing, other number) (A*03:01/photoKK9 (human) [5]): 0.73 of WT
relative catalytic activity in peptide exchange, (Kon mutant - Kon noTsn)/(Kon WT - Kon noTsn); UV-exposed B*27:09/photoRL9, FITC-IF9 (B*27:09/photoRL9 (human) [6]): 0.95 of WT
relative catalytic activity in peptide exchange, (Kon mutant - Kon noTsn)/(Kon WT - Kon noTsn); UV-exposed B*27:05/photoRL9, FITC-RL9 (B*27:05/photoRL9 (human) [7]): 0.86 of WT
relative catalytic activity in peptide exchange, (Kon mutant - Kon noTsn)/(Kon WT - Kon noTsn); UV-exposed A*03:01/photoKK9, FITC-KK9 (A*03:01/photoKK9 (human) [8]): 0.77 of WT
Substance: ERp57-Tsn^K16G (from UniProt O15533 21-398; P30101 25-504) (complex)

relative catalytic activity in peptide exchange, (Kon mutant - Kon noTsn)/(Kon WT - Kon noTsn); UV-exposed B*27:09/photoRL9, FITC-IF9 (B*27:09/photoRL9 (human) [6]): 0.04 of WT
relative catalytic activity in peptide exchange, (Kon mutant - Kon noTsn)/(Kon WT - Kon noTsn); UV-exposed B*27:05/photoRL9, FITC-RL9 (B*27:05/photoRL9 (human) [7]): 0.05 of WT
relative catalytic activity in peptide exchange, (Kon mutant - Kon noTsn)/(Kon WT - Kon noTsn); UV-exposed A*03:01/photoKK9, FITC-KK9 (A*03:01/photoKK9 (human) [8]): 0.36 of WT
Substance: ERp57-Tsn^L18G (from UniProt O15533 21-398; P30101 25-504) (complex)

The remaining lines, values behind:

Substance: TAPBPR (TAP-binding protein-related protein) (from UniProt Q9BX59 19-405) (natural protein)
fold increase of the peptide exchange rate (observed Kon of FITC-GV9, fluorescence polarisation) of 500 nM UV-exposed A*02:01/photoKV9 with equimolar TAPBPR against none (A*02:01/photoKV9 (human) [1]): 30.9 fold
fold increase of the peptide exchange rate (observed Kon of FITC-RL9, fluorescence polarisation) of 500 nM UV-exposed B*27:09/photoRL9 with equimolar TAPBPR against none (B*27:09/photoRL9 (human) [2]): 3.13 fold
fold increase of the peptide exchange rate (observed Kon of FITC-RL9, fluorescence polarisation) of 500 nM UV-exposed B*27:05/photoRL9 with equimolar TAPBPR against none (B*27:05/photoRL9 (human) [3]): 1.48 fold
fold increase of the peptide exchange rate (observed Kon of FITC-KK9, fluorescence polarisation) of 500 nM UV-exposed A*03:01/photoKK9 with equimolar TAPBPR against none (A*03:01/photoKK9 (human) [4]): 34.3 fold

Substance: ERp57-Tapasin conjugate (wild-type) (from UniProt O15533 21-398; P30101 25-504) (complex)
fold increase of the peptide exchange rate (observed Kon of FITC-GV9, fluorescence polarisation) of 500 nM UV-exposed A*02:01/photoKV9 with equimolar ERp57-Tsn^WT against none (A*02:01/photoKV9 (human) [9]): 1.31 fold
fold increase of the peptide exchange rate (observed Kon of FITC-RL9, fluorescence polarisation) of 500 nM UV-exposed B*27:09/photoRL9 with equimolar ERp57-Tsn^WT against none (B*27:09/photoRL9 (human) [10]): 3.83 fold
fold increase of the peptide exchange rate (observed Kon of FITC-RL9, fluorescence polarisation) of 500 nM UV-exposed B*27:05/photoRL9 with equimolar ERp57-Tsn^WT against none (B*27:05/photoRL9 (human) [11]): 5.83 fold
fold increase of the peptide exchange rate (observed Kon of FITC-KK9, fluorescence polarisation) of 500 nM UV-exposed A*03:01/photoKK9 with equimolar ERp57-Tsn^WT against none (A*03:01/photoKK9 (human) [12]): 10.9 fold

Substance: ERp57-Tsn^K16L (from UniProt O15533 21-398; P30101 25-504) (complex)
relative catalytic activity in peptide exchange against ERp57-Tsn^WT; UV-exposed B*27:09/photoRL9, FITC-IF9 (B*27:09/photoRL9 (human) [13]): 1.26 of WT
relative catalytic activity in peptide exchange against ERp57-Tsn^WT; UV-exposed A*03:01/photoKK9, FITC-KK9 (A*03:01/photoKK9 (human) [14]): 0.93 of WT
